From paper PMC4288197, “Novel RNA chaperone domain of RNA-binding protein La is regulated by AKT phosphorylation”
Substitutions are numbered along the chain they refer to.

T1: LaΔRCD (Homo sapiens, UniProt P05455 1-408, R334G;R335G;F336V;K337G;G338G;K339G;F357V;K360G;K361G;T362T;K363G;F364V)
T1 sequence: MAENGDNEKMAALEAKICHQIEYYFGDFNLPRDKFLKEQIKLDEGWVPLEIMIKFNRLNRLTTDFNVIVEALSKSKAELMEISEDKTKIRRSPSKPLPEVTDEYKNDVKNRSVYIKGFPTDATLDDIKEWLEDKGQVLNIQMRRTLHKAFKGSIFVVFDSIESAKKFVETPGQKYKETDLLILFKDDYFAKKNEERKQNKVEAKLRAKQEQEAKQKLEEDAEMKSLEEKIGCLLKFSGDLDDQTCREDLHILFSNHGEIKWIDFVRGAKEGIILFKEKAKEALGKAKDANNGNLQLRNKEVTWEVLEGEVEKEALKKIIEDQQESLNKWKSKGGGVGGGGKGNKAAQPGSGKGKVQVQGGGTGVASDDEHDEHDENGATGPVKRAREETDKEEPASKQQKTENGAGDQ

T2: La WT (LARP3) (Homo sapiens, UniProt P05455 1-408)
T2 sequence: T1 sequence with G334R, G335R, V336F, G337K, G339K, V357F, G360K, G361K, G363K, V364F

T3: La-Δlinker (Homo sapiens, UniProt P05455 1-408, del170-230)
T3 sequence: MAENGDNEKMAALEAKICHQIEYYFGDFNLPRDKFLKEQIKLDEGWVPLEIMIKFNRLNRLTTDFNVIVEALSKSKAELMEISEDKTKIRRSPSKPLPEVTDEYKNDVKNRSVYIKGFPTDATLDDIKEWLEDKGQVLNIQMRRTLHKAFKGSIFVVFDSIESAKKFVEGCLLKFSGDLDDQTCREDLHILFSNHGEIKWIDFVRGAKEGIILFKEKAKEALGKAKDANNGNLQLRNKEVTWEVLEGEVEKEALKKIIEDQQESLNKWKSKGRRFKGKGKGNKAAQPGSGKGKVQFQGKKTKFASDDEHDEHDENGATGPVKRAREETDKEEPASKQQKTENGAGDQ

T4: LaΔ1 (LAM deleted) (Homo sapiens, UniProt P05455 1-408, del11-99)
T4 sequence: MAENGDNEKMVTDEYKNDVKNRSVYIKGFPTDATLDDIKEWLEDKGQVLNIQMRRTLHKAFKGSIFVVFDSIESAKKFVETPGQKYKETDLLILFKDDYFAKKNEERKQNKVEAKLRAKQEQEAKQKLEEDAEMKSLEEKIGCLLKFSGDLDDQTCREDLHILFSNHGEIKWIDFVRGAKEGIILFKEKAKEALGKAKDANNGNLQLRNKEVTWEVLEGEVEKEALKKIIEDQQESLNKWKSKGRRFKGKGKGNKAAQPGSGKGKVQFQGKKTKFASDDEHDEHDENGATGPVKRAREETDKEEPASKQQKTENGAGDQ


What was measured:
LaΔRCD = biological target: T1, LaΔRCD; assay: EMSA; similar to WT; two complexes at high La; 20 mM Tris/HCl pH 8.0, 150 mM NaCl, 1.5 mM MgCl2, 0.5 mM EDTA, 0.5% NP-40 (FP: IGEPAL CA-630, 100 ug/ml bovine gamma globulin), 10 nM RNA, room temperature; conditions: protein: recombinant; tags: His; label: 32P (EMSA) or 5'-FAM (FP); hairpin (predicted)
La WT (LARP3) [1] = biological target: T2, La WT (LARP3); assay: fluorescence polarization; 5'-FAM RNA; 20 mM Tris/HCl pH 8.0, 150 mM NaCl, 1.5 mM MgCl2, 0.5 mM EDTA, 0.5% NP-40 (FP: IGEPAL CA-630, 100 ug/ml bovine gamma globulin), 10 nM RNA, room temperature; conditions: protein: recombinant; tags: His; label: 32P (EMSA) or 5'-FAM (FP); hairpin (predicted)
La WT (LARP3) [2] = biological target: T2, La WT (LARP3); assay: EMSA; 20 mM Tris/HCl pH 8.0, 150 mM NaCl, 1.5 mM MgCl2, 0.5 mM EDTA, 0.5% NP-40 (FP: IGEPAL CA-630, 100 ug/ml bovine gamma globulin), 10 nM RNA, room temperature; conditions: protein: recombinant; tags: His; label: 32P (EMSA) or 5'-FAM (FP); hairpin (predicted)
La-Δlinker = biological target: T3, La-Δlinker; assay: as above; conditions: protein: recombinant; tags: His; label: 32P (EMSA) or 5'-FAM (FP); hairpin (predicted)
LaΔ1 (LAM deleted) = biological target: T4, LaΔ1 (LAM deleted); assay: EMSA; affinity similar to WT; two complexes; 20 mM Tris/HCl pH 8.0, 150 mM NaCl, 1.5 mM MgCl2, 0.5 mM EDTA, 0.5% NP-40 (FP: IGEPAL CA-630, 100 ug/ml bovine gamma globulin), 10 nM RNA, room temperature; conditions: protein: recombinant; tags: His; label: 32P (EMSA) or 5'-FAM (FP); hairpin (predicted)
La WT (LARP3) [3] = biological target: T2, La WT (LARP3); assay: competition; vs labeled D1-AUG; 20 mM Tris/HCl pH 8.0, 150 mM NaCl, 1.5 mM MgCl2, 0.5 mM EDTA, 0.5% NP-40 (FP: IGEPAL CA-630, 100 ug/ml bovine gamma globulin), 10 nM RNA, room temperature; conditions: protein: recombinant; tags: His

| Binder | binding result (LaΔRCD) | Kd (La WT (LARP3) [1]) | Kd (La WT (LARP3) [2]) | binding result (La-Δlinker) | binding result (LaΔ1 (LAM deleted)) | binding result (La WT (LARP3) [3]) |
| --- | --- | --- | --- | --- | --- | --- |
| GCUGCCCAGGAAGAGCCCCAGCCAUGGAACACCAGCUCCUGUGCUGC (structured_RNA) [D1-AUG] | binds | 76 nM | 80.3 nM | no binding | binds |  |
| CAGGAAGAGCCCCAGCCAGGGAACACCAGCUCCUG (ssRNA) [D1-mu2] |  |  |  |  |  | binds |
| CAGGAAGAGCCCCACAGAUGCACCACCAGCUCCUG (ssRNA) [D1-mu3] |  |  |  |  |  | no binding |
